Measurements as given in doi:10.1101/808618 (bioRxiv, 2020).
Changes are numbered by the printed parent chain. Names and notes keep the numbering of the source.

B1: PfGMPS_E555L (enzyme, Plasmodium falciparum)
chain: MEGEEYDKILVLNFGSQYFHLIVKRLNNIKIFSETKDYGVELKDIKDMNIKGVILSGGPYSVTEAGSPHLKKEVFEYFLEKKIPIFGICYGMQEIAVQMNGEVKKSKTSEYGCTDVNILRNDNINNITYCRNFGDSSSAMDLYSNYKLMNETCCLFENIKSDITTVWMNHNDEVTKIPENFYLVSSSENCLICSIYNKEYNIYGVQYHPEVYESLDGELMFYNFAYNICKCKKQFDPIRYHELELKNIEKYKHDHYVIAAMSGGIDSTVAAAYTHKIFKERFFGIFIDNGLLRKNEAENVYTFLKSTFPDMNITKIDASENFLSNLQGVTDPEQKRKIIGKLFIEEFEKAVNNIDIDINKTFLLQGTLYPDIIESKCSKNLSDTIKTHHNVGGLPKNLKFKLFEPFKYLFKDDVKTLSRELNLPEEITNRHPFPGPGLAIRVIGEINKHKLNILREVDDIFINDLKQYGLYNQISQAFAVLLSSKSVGVRGDARSYDYVCVLRAVKTSSFMTANWYQIPYDILDKITTRILSEVKGVNRILYDVSSKPPATIEFL
B2: PfGMPS_K24L (enzyme, Plasmodium falciparum)
chain: B1 chain with K24L, L555E
B3: PfGMPS R25L (enzyme, Plasmodium falciparum)
chain: B1 chain with R25L, L555E
B4: PfGMPS K160L (enzyme, Plasmodium falciparum)
chain: B1 chain with K160L, L555E
B5: PfGMPS_E213A (enzyme, Plasmodium falciparum)
chain: B1 chain with E213A, L555E
B6: PfGMPS K376L (enzyme, Plasmodium falciparum)
chain: B1 chain with K376L, L555E
B7: PfGMPS_K386L (enzyme, Plasmodium falciparum)
chain: B1 chain with K386L, L555E
B8: PfGMPS_T387A (enzyme, Plasmodium falciparum)
chain: B1 chain with T387A, L555E
B9: PfGMPS_H388A (enzyme, Plasmodium falciparum)
chain: B1 chain with H388A, L555E

Molecular target: the molecule itself
Assay: SEC
B1: binds.
B2: binds.
B3: binds.
B4: binds.
B5: binds.
B6: binds.
B7: binds.
B8: binds.
B9: binds.
